# Experimental data as given in patent US20040009511A1, “Identification of compounds which stimulate bone formation using a cell-based screening assay targeting BMP signaling” (priority 2002, published 2004).
# How the values were obtained:
# [1] = system: 9×SBE-6×OSE2-OC-luc reporter construct in 2T3 C-17 cells; experiment: Luciferase assay, 9×SBE-6×OSE2-OC-luc reporter stably transfected in 2T3 clone C-17; assay type: cell-based; parameters: Luciferase Activity: unit not given here; conditions: for Effect on luciferase activity of the reporter construct: 2T3 C-17 cells
# Description: (§1) An oligonucleotide containing 9 copies of Smad1 response element (9×SBE) and 6 copies of Cbfa1 response element (6×OSE2) was synthesized in the DNA laboratory at University of Texas Health Science Center at San Antonio. The osteocalcin basal promoter (OC, −155/+1) was amplified by Polymerase Chain Reaction (PCR) using mouse genomic DNA as a template and cloned into pGL3 vector. An 9×SBE-6×OSE2 oligonucleotide was cloned upstream of osteocalcin basal promoter.
# (§2) C2C12 and 2T3 cells were plated in 6-well culture plates at densities of 4×10^5 and 2×10^5 cells/well and cultured with DMEM or α minimal essential medium (α MEM) supplemented with 10% FCS for 24 hours. A 9×SBE-6×OSE2-OC-luc-reporter construct (2 μg/well) was co-transfected with pcDNA3 empty vector (0.2 mg/well) in C2C12 and 2T3 cells using lipofactamine plus reagents (Gibco/BRL). Forty eight hours later, G418 (200 μg/ml) was added to the culture plates. Four weeks after G418 selection, the G418 resistant cells were plated in 96-well plates at the density of 1 cell/well and cloned by limiting dilution method.
# (§3) C2C12 and 2T3 cells, in which 9×SBE-6×OSE2-OC-luc-reporter construct was stably transfected, were plated in 96-well culture plates at densities of 1×10^4 and 0.5×10^4 cells/well and cultured for 24 hours. The medium was changed to fresh medium supplemented with 2% FCS and different growth factors or hormone were added to culture medium for 24 hours or different compounds were added to culture medium for 2, 6, 12, 24 and 48 hours. The cell lysates were extracted and luciferase activities were determined by luciferase assay kit (Promega, Madison, Wis.) using a Luminometer.
# (§4) At the end of the incubation, the cell lysates were extracted using lysis buffer and luciferase activities were measured using a luciferase assay kit (Promega).
# [2] = system: BMP production in MG-63 cells; experiment: Conditioned medium of treated MG-63 cells tested on 2T3 C-17 reporter cells; assay type: cell-based, human; conditions: MG-63 treated 1 and 5 hours, washed, 24 hour CM; 2T3 C-17 treated with CM 48 hours
# Description: 2T3 C-17 cells were then treated with said CM for 48 hours.
# [3] = system: 9×SBE-6×OSE2-OC-luc reporter construct in C2C12 C-10-62 cells; experiment: Luciferase assay, 9×SBE-6×OSE2-OC-luc reporter stably transfected in C2C12 clone C-10-62; assay type: cell-based; conditions: 24 hours
# Description: as §1, §2, §3, §4
# [4] = system: 9×SBE-6×OSE2-OC-luc reporter construct; experiment: Luciferase assay, 9×SBE-6×OSE2-OC-luc reporter construct, cells not specified; assay type: cell-based; conditions: stimulation of luciferase activity; stated for C2C12 C-10-62 and 2T3 C-17 without distinction
# Excerpt: as §1, §3
# Further, a reporter construct which contains multiple copies of both Smad1 (SBE) and Cbfa1 (OSE2) response elements (9×SBE-6×OSE2-OC-luc) was made.
# [5] = Epoxomicin 0.0156 μM, cell type not given
# [6] = Epoxomicin 0.0625 μM, cell type not given
# [7] = Epoxomicin 0.125 μM, cell type not given
# [8] = Epoxomicin 0.25 μM, cell type not given
# [9] = Epoxomicin 0.5 μM, cell type not given
# [10] = Epoxomicin 1 μM, cell type not given
# [11] = BMP-7 1.95 ng/ml, 24 hours, 2T3 clone 17
# [12] = BMP-7 3.91 ng/ml, 24 hours, 2T3 clone 17
# [13] = BMP-7 7.81 ng/ml, 24 hours, 2T3 clone 17
# [14] = BMP-7 15.625 ng/ml, 24 hours, 2T3 clone 17
# [15] = BMP-7 31.25 ng/ml, 24 hours, 2T3 clone 17
# [16] = BMP-7 62.5 ng/ml, 24 hours, 2T3 clone 17
# [17] = BMP-7 125 ng/ml, 24 hours, 2T3 clone 17
# [18] = BMP-7 250 ng/ml, 24 hours, 2T3 clone 17
# [19] = BMP-7 500 ng/ml, 24 hours, 2T3 clone 17
# [20] = BMP-7 1000 ng/ml, 24 hours, 2T3 clone 17
# [21] = BMP-4 0.049 ng/ml, 24 hours, 2T3 clone 17
# [22] = BMP-4 0.098 ng/ml, 24 hours, 2T3 clone 17
# [23] = BMP-4 0.195 ng/ml, 24 hours, 2T3 clone 17
# [24] = BMP-4 0.39 ng/ml, 24 hours, 2T3 clone 17
# [25] = BMP-4 0.78 ng/ml, 24 hours, 2T3 clone 17
# [26] = BMP-4 1.56 ng/ml, 24 hours, 2T3 clone 17
# [27] = BMP-4 3.125 ng/ml, 24 hours, 2T3 clone 17
# [28] = BMP-4 6.25 ng/ml, 24 hours, 2T3 clone 17
# [29] = BMP-4 12.5 ng/ml, 24 hours, 2T3 clone 17
# [30] = BMP-4 25 ng/ml, 24 hours, 2T3 clone 17
# [31] = BMP-4 50 ng/ml, 24 hours, 2T3 clone 17
# [32] = BMP-4 100 ng/ml, 24 hours, 2T3 clone 17
molecule,measurement,setting,value
"CC[C@H](C)[C@H](NC(=O)[C@H]([C@@H](C)CC)N(C)C(C)=O)C(=O)N[C@H](C(=O)N[C@@H](CC(C)C)C(=O)[C@@]1(C)CO1)[C@@H](C)O [Epoxomicin, epoxomicin, reference compound]",Luciferase Activity,[1]; [5],0.041
same,Luciferase Activity (fold increase),[1]; [5],1.0 fold
same,Luciferase Activity,[1]; [6],0.064
same,Luciferase Activity (fold increase),[1]; [6],1.6 fold
same,Luciferase Activity,[1]; [7],0.098
same,Luciferase Activity (fold increase),[1]; [7],2.4 fold
same,Luciferase Activity,[1]; [8],0.142
same,Luciferase Activity (fold increase),[1]; [8],3.5 fold
same,Luciferase Activity,[1]; [9],0.153
same,Luciferase Activity (fold increase),[1]; [9],3.7 fold
same,Luciferase Activity,[1]; [10],0.120
same,Luciferase Activity (fold increase),[1]; [10],2.9 fold
same,Effect of 24 hour conditioned medium of treated MG-63 cells on the reporter construct,[2],CM stimulated the reporter construct in a concentration-dependent manner
"BMP-7: Bone morphogenetic protein 7 (protein, UniProt P18075 293-431, looked up) Bone morphogenetic protein 7: STGSKQRSQNRSKTPKNQEALRMANVAENSSSDQRQACKKHELYVSFRDLGWQDWIIAPEGYAAYYCEGECAFPLNSYMNATNHAIVQTLVHFINPETVPKPCCAPTQLNAISVLYFDDSSNVILKKYRNMVVRACGCH",Effect on luciferase activity of the reporter construct,[1]; 24 hours,stimulated luciferase activity in a dose-dependent manner
same,Luciferase Activity,[1]; [11],0.076
same,Luciferase Activity (fold increase),[1]; [11],1.1 fold
same,Luciferase Activity,[1]; [12],0.090
same,Luciferase Activity (fold increase),[1]; [12],1.3 fold
same,Luciferase Activity,[1]; [13],0.108
same,Luciferase Activity (fold increase),[1]; [13],1.6 fold
same,Luciferase Activity,[1]; [14],0.148
same,Luciferase Activity (fold increase),[1]; [14],2.2 fold
same,Luciferase Activity,[1]; [15],0.216
same,Luciferase Activity (fold increase),[1]; [15],3.2 fold
same,Luciferase Activity,[1]; [16],0.374
same,Luciferase Activity (fold increase),[1]; [16],5.6 fold
same,Luciferase Activity,[1]; [17],0.813
same,Luciferase Activity (fold increase),[1]; [17],12.1 fold
same,Luciferase Activity,[1]; [18],1.425
same,Luciferase Activity (fold increase),[1]; [18],21.3 fold
same,Luciferase Activity,[1]; [19],2.224
same,Luciferase Activity (fold increase),[1]; [19],33.2 fold
same,Luciferase Activity,[1]; [20],3.404
same,Luciferase Activity (fold increase),[1]; [20],50.8 fold
same,Effect on luciferase activity of the reporter construct,[3],stimulated luciferase activity in a dose-dependent manner
same,Minimal effective dose,[4],15 to 30 ng/mL
"BMP-4: Bone morphogenetic protein 4 (protein, UniProt P12644 293-408, looked up) Bone morphogenetic protein 4: SPKHHSQRARKKNKNCRRHSLYVDFSDVGWNDWIVAPPGYQAFYCHGDCPFPLADHLNSTNHAIVQTLVNSVNSSIPKACCVPTELSAISMLYLDEYDKVVLKNYQEMVVEGCGCR",Effect on luciferase activity of the reporter construct,[1]; 24 hours,stimulated luciferase activity in a dose-dependent manner
same,Luciferase Activity,[1]; [21],0.0745
same,Luciferase Activity (fold increase),[1]; [21],1.6 fold
same,Luciferase Activity,[1]; [22],0.111
same,Luciferase Activity (fold increase),[1]; [22],2.3 fold
same,Luciferase Activity,[1]; [23],0.141
same,Luciferase Activity (fold increase),[1]; [23],2.9 fold
same,Luciferase Activity,[1]; [24],0.384
same,Luciferase Activity (fold increase),[1]; [24],8.0 fold
same,Luciferase Activity,[1]; [25],0.597
same,Luciferase Activity (fold increase),[1]; [25],12.4 fold
same,Luciferase Activity,[1]; [26],0.821
same,Luciferase Activity (fold increase),[1]; [26],17.1 fold
same,Luciferase Activity,[1]; [27],1.064
same,Luciferase Activity (fold increase),[1]; [27],22.2 fold
same,Luciferase Activity,[1]; [28],1.256
same,Luciferase Activity (fold increase),[1]; [28],26.2 fold
same,Luciferase Activity,[1]; [29],1.534
same,Luciferase Activity (fold increase),[1]; [29],32.0 fold
same,Luciferase Activity,[1]; [30],1.576
same,Luciferase Activity (fold increase),[1]; [30],32.8 fold
same,Luciferase Activity,[1]; [31],1.887
same,Luciferase Activity (fold increase),[1]; [31],39.3 fold
same,Luciferase Activity,[1]; [32],2.166
same,Luciferase Activity (fold increase),[1]; [32],45.1 fold
same,Effect on luciferase activity of the reporter construct,[3],stimulated luciferase activity in a dose-dependent manner
same,Minimal effective dose,[4],0.1 to 0.2 ng/mL
